This test concerns the target mouse GDF-9 receptor on granulosa cells (mouse). The test can be described thus: cell-based or functional assay.

B1: recombinant mouse GDF-9, cleaved, mature, glycosylated form (21 kD) (ligand, UniProt Q07105 307-441, looked up)
chain: GQKAIRSEAKGPLLTASFNLSEYFKQFLFPQNECELHDFRLSFSQLKWDNWIVAPHRYNPRYCKGDCPRAVRHRYGSPVHTMVQNIIYEKLDPSVPRPSCVPGKYSPLSVLTIEPDGSIAYKEYEDMIATRCTCR
modifications: one N-linked oligosaccharide (single N-linked glycosylation site, Asn325)
Consider B1, for which the COX-2 mRNA (RT-PCR) after 24 hours with 100 ng/ml GDF-9 was found to be 50 fold; the HAS2 expression (RT-PCR) after 5 hours, 50 ng/ml and 100 ng/ml mGDF-9 against 10 ng/ml fell in the range of 5 to 10 fold; the HAS2 expression (RT-PCR), granulosa cells cultured ~20 hrs with mGDF-9 media, against CHO control stood at 10 fold; the HAS2 mRNA (Northern blot, 4.8 kb and 3.2 kb forms) after 5 hours with 50 ng/ml GDF-9 worked out at 9.7 fold. For the same molecule, the LH receptor mRNA (RT-PCR) with 10 ng/ml FSH, control-treated against cells treated with 100 ng/ml GDF-9 came to 30 fold; the cumulus expansion of oocytectomized complexes cultured 18 hours with 100 ng/ml GDF-9 (out of 44 complexes) was 40; the fold decrease in HAS2 expression without GDF-9 (0-24 hours) against the peak level induced by 100 ng/ml GDF-9 came to 10 fold; the uPA RT-PCR band intensity at 5 hours, 100 ng/ml GDF-9, normalized to HPRT is 15 % of control. The uPA RT-PCR band intensity at 9 hours, 100 ng/ml GDF-9, normalized to HPRT is 9 % of control and the uPA mRNA (Northern blot) with 50 ng/ml GDF-9 was 40 % of control.
